Data: patent US20100287625A1, “VEGF VARIANTS” (UNIVERSITE DE LIEGE, priority 2006, published 2010)

B1: VEGF111: new VEGF isoform lacking exons 5 to 7, SEQ ID NO:2; recombinant, produced in HEK293 cells (protein, listed as Homo sapiens)
chain: MNFLLSWVHWSLALLLYLHHAKWSQAAPMAEGGGQNHHEVVKFMDVYQRSYCHPIETLVDIFQEYPDEIEYIFKPSCVPLMRCGGCCNDEGLECVPTEESNITMQIMRIKPHQGQHIGEMSFLQHNKCECRPCGPCSERRKHLFVQDPQTCKCSCKNTDSRCKARQLELNERTCRCDKPRR
B2: rbVEGF165: commercially available recombinant VEGF165 produced in bacteria (protein)
chain: APMAEGGGQNHHEVVKFMDVYQRSYCHPIETLVDIFQEYPDEIEYIFKPSCVPLMRCGGCCNDEGLECVPTEESNITMQIMRIKPHQGQHIGEMSFLQHNKCECRPKKDRARQENPCGPCSERRKHLFVQDPQTCKCSCKNTDSRCKARQLELNERTCRCDKPRR
B3: VEGF121: known VEGF isoform, recombinant, produced in HEK293 cells (protein)
chain: APMAEGGGQNHHEVVKFMDVYQRSYCHPIETLVDIFQEYPDEIEYIFKPSCVPLMRCGGCCNDEGLECVPTEESNITMQIMRIKPHQGQHIGEMSFLQHNKCECRPKKDRARQEKCDKPRR

Legend:
plasmin = plasmin (Homo sapiens, UniProt P00747); experiment: Degradation of recombinant VEGF by plasmin, western blotting; assay type: in vitro ADME; settings: 20 ng reVEGF, plasmin 0.04 to 0.32 units/ml, 4 hours
Procedure: (§1) Recombinant VEGF165, VEGF121 or VEGF111 were produced in HEK293 cells. […] The figure depicts the percentage of degradation of each VEGF by comparison with untreated samples.
To facilitate the analysis of the electrophoretic patterns they were further treated with PNGase as described above and the products of the reactions were analysed by western blotting. […] FIG. 6A depicts the percentage of degradation of each VEGF by comparison with untreated samples.

[1] = Degradation of recombinant VEGF by chronic wound fluid, western blotting; assay type: in vitro ADME; settings: for susceptibility to proteolytic degradation by plasmin and fluids from chronic ulcers: summary statement
Procedure: (§2) FIG. 7: VEGF111 is resistant to degradation by fluids collected from chronic wound. A: Conditioned media containing 20 ng of recombinant VEGF as produced above were treated with chronic wound fluid collected in one patient (20 μl at 37° C.) for indicated times and analysed by western blotting using anti-VEGF antibodies. B: HUVEC were treated with recombinant VEGF111, VEGF121 or VEGF165 produced in HEK293 cells, or with commercially available VEGF165 or the carrier alone, untreated or treated with fluids from chronic wounds (20 μl at 37° C. for 24 hours), and cell multiplication was measured by incorporation of ^3H-thymidine.
Conditioned media containing 20 ng of recombinant VEGF as produced above were treated with chronic wound fluid collected in one patient (20 μl at 37° C.) for indicated times and analysed by western blotting using anti-VEGF antibodies (FIG. 7A). […] FIG. 7B depicts the effect of treatment with chronic wound fluids on the mitogenic activity of the recombinants VEGF on HUVEC.

HUVEC [2] = experiment: Mitogenic activity on HUVEC of VEGF pre-treated with plasmin or chronic wound fluids (3H-thymidine incorporation); assay type: cell-based, human; settings: summary statement, FIG. 6B, 7B
Procedure: as §1, §2
(§3) 15000 HUVEC were seeded in gelatin-coated wells of 24 multiwells dishes in the presence of FCS. After three hours, the medium was replaced by fresh medium containing or not VEGF and renewed every two days. Cells were collected at various times and the DNA was measured by fluorimetry on a SpectraMax Gemini XS apparatus (Molecular Devices, England) after labeling with bis-benzimide. In some experiments, ^3H-thymidine (1 μM, 2.5 Ci/mol, NEN, Wellesley, Mass., USA) was added to cell cultures at day two and the trichloracetic acid-precipitable radioactivity was measured after 18 hours.

ERK1/2 = experiment: Activation of ERK1/2 signalling in HUVEC, western blotting; assay type: cell-based, human; settings: HUVEC starved overnight, treated 5 min
Procedure: (§4) FIG. 4: VEGF111 is biologically active in vitro. A and B: VEGF111 activates VEGF-R2 (A) and ERK1/2 (B) in HUVEC. HUVEC were treated with HEK293 conditioned mediums containing VEGF111, VEGF121 or VEGF165, commercially available recombinant VEGF165 produced in bacteria (cVEGF) (20 ng/ml each) or fetal calf serum (FCS, 10%) for 5 minutes. Untreated cells (−) or cells treated with conditioned medium of control HEK293 cells (CM) served as control. Total and phosphorylated VEGF-R2 and ERK1/2 were measured by western blotting. C: VEGF111 promotes proliferation of HUVEC. HUVEC were treated with HEK293 conditioned mediums containing VEGF111(black circles), VEGF121 (open triangles) or VEGF165 (black triangles) (10 ng/ml) or conditioned medium from control HEK293 cells (open circles). The DNA was measured in triplicate wells harvested at increasing time of treatment. D: representative microphotograph of -embryoid bodies after immunofluorescent labeling of CD31 as marker of vasculature. Bar: […]. E: A number of microphotographs (of 6 embryoid bodies from 3 independent experiments for each treatment) were taken at random and analyzed by 5 investigators not aware of the treatments, and a score (from 0 to 3, where 0 indicates lack of vascular labeling, and 3 maximum labeling) was given to each sample. F: CD31 mRNA level was measured in embryoid bodies (10 samples in 3 independent experiment for each group) as described in Material and Methods. Statistical analysis was performed using the homoscedastic Student T test. *: p<0.05; **: p<0.01; ***: p<0.001
The proteins were migrated onto polyacrylamide gels and transferred onto PVDF transfer membranes (NEN, Boston, Mass.) by electroblotting. The membranes were blocked by non-fat dry milk (3% in PBS-tween buffer) and probed with first and horseradish peroxidase-conjugated secondary antibodies. Signals were detected by chemiluminescence using a ECL Western Blotting Analysis system (Amersham, Little Chalfont, England) and X-ray film exposure and quantified using a Fluor-S MultiImager (BioRad, Hercules, Calif.).
VEGF induces a number of effects in endothelial cells, including autophosphorylation of its receptors, activation of the ERK1/2 MAPkinases pathways, induction of calcium transients and increased proliferation. The in vitro effects of recombinants VEGFs on HUVEC were compared. HUVEC were starved overnight and treated for five min. with reVEGFs. […] Conditioned medium from HEK293 cells transfected with the empty vector had no effect. To further confirm the biological activity of VEGF111 the activation of ERK1/2 signalling pathways was investigated by western blotting using monoclonal phospho-specific antibodies. HUVEC were starved overnight and treated with the three reVEGF isoforms, as well as rbVEGF165, for 5 min. […]

HUVEC [3] = experiment: Intracellular calcium transients in HUVEC (Fluo3, confocal microscopy); assay type: cell-based, human; settings: conditioned medium with 10 ng VEGF, control medium about 15%
Procedure: HUVEC were plated for 18 hours in MCDB-131 medium containing 20% FCS in borosilicate culture chambers (Lab-Tek®, Nunc, Rochester N.Y.) coated with gelatin, rinsed with serum-free medium, incubated with the fluorophore Fluo3-AM (10 μM, Molecular Probes, Eugene, Oreg.) in serum-free medium for two hours and washed. The observation of the fluorescence emitted by the Fluo3-labeled cells started 5 minutes after the last washing. Microscope fields randomly selected were examined by a confocal microscope (Meridian, Akemos, Mich.). The Fluo3-loaded cells were excited by an Argon LASER at 488 nm and the emitted fluorescence recorded at 530 nm in each cell of the field by real time imaging. Image processing and data computing were performed using the Meridian software. The intensity of the emitted fluorescence was recorded every second during 4 minutes. As the overall fluorescence intensity varied from cell to cell, the level of fluorescence of each cell at the beginning of the recording was normalised to one arbitrary unit. The baseline of resting cells spontaneously oscillated by ±10% around the level of the first image acquisition. After a 20 second period of baseline recording, 10-20 μL of conditioned medium from HEK293 cells expressing or not VEGF111, VEGF121 or VEGF165 (10 ng) were added gently on the cells under microscopic examination. A 20% rise above the baseline was considered as a significant calcium rise and the cell regarded as responsive. The results were expressed as the percentage of responding cells.
The induction of calcium transients by the various reVEGFs was investigated on HUVEC by real-time fluorescent microscopy as described. As the calcium concentration in resting cells spontaneously varied by about 10% around the baseline, cells were defined as responsive when the treatments induced a peak of calcium at least 20% above the baseline. HUVEC were treated with conditioned mediums from control HEK293 cells or cells expressing VEGF111, VEGF121 and VEGF165.

HUVEC [4] = experiment: HUVEC proliferation (DNA measurement); assay type: cell-based, human; settings: 10 ng/ml, medium renewed every two days
Procedure: as §4
as §3, with “After three hours, the medium was replaced by fresh medium containing or not VEGF and renewed every two days.” left out, “hours. […]” for “hours.”

[5] = test system: recombinant VEGF111 produced in HEK293 cells
[6] = biological target: recombinant VEGF121 produced in HEK293 cells (UniProt P15692)
[7] = biological target: recombinant VEGF165 produced in HEK293 cells (UniProt P15692)

Chain of plasmin (Homo sapiens, UniProt P00747) (P00747 581-810 limits assumed, species assumed): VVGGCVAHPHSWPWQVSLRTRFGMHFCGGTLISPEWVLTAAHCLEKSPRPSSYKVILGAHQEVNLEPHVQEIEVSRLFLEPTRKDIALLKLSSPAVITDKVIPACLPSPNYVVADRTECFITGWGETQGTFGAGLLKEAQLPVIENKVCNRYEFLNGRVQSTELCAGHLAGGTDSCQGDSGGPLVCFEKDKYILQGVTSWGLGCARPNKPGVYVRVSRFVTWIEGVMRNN
Chain of plasmin (Homo sapiens, UniProt P00747) (P00747 97-580 partner limits assumed, species assumed): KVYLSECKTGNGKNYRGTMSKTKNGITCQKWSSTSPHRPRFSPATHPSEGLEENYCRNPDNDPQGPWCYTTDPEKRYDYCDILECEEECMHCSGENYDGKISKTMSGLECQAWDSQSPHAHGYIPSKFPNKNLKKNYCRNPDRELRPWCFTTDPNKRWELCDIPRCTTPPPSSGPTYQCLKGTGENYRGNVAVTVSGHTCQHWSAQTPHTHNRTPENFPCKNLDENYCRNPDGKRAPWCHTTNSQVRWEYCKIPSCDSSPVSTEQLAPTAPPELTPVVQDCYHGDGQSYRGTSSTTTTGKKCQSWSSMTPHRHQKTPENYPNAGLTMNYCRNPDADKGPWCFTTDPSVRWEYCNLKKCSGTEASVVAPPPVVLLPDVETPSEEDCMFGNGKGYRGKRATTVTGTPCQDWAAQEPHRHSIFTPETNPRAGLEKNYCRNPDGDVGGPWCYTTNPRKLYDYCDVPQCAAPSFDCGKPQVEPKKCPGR

Row | Molecule | degradation by plasmin (western blotting) (plasmin) | susceptibility to proteolytic degradation by plasmin and fluids from chronic ulcers [1] | effect of treatment by plasmin or fluids from non-healing wounds on the activity of the VEGF (HUVEC [2]) | phosphorylation of ERK1/2 (ERK1/2) | percentage of responding cells (calcium transients, peak at least 20% above baseline) (HUVEC [3]) [%] | increase of proliferation rate as compared to control conditioned medium (HUVEC [4]) [fold] | dose of plasmin that cleaves VEGF by 50% [5] | dose of plasmin that cleaves VEGF by 50% [6] | dose of plasmin that cleaves VEGF by 50% [7] | dose of plasmin that cleaves VEGF by 50% (plasmin; 37° C.) | degradation by chronic wound fluid ([1]; 20 ng VEGF, 20 μl wound fluid of one patient, 37° C., after 24 hrs)
1 | VEGF165: known VEGF isoform, recombinant, produced in HEK293 cells [reference compound] | progressively degraded | susceptible | reduces or suppresses | induced | 70 | 2.5 | – | – | – | – | –
2 | plasmin | – | – | – | – | – | – | above 0.32 U/ml for VEGF111 | comprised between 0.05 and 0.07 U/ml for VEGF165 and VEGF121 | comprised between 0.05 and 0.07 U/ml for VEGF165 and VEGF121 | – | –
3 | B1 | unaffected | – | does not affect | induced | 70 | 2 | – | – | – | above 0.32 U/ml | no detectable degradation
4 | B2 | – | – | – | induced | – | – | – | – | – | – | –
5 | B3 | progressively degraded | susceptible | reduces or suppresses | induced | 70 | 2 | – | – | – | – | –
